Assay results published in the supplement of paper PMC10126150.
± gives the standard deviation of the averaged measurements.

Tested on: ATP
Assay: switch fluorescence ratio, 500 uM ATP over buffer (Cy3 cluster intensity, sum of 5 cycles each) (fold (ratio)); higher = stronger signal-on switching upon ATP binding; sequences stand for … in TCGTCGGCAGCGTCAGATGTGTATAAGAGACAGTTTTTTTTTTTTTTTTTTTTTTTTT…TC
Conditions: aptamer strand: ATP DNA aptamer (quencher-CACCTGGGGGAGTATTGCGGAGGAAGG + anchor), 100 nM annealed; ATP concentration: 500 uM
How it was run: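 Five buffer/ATP imaging cycles were run on Cy3-labelled switching-strand clusters on a modified Illumina MiSeq flow-cell, with NaOH stripping and re-annealing between cycles. In each cycle, clusters annealed to 100 nM quencher-labelled ATP aptamer were imaged in selection buffer, then after 15 min with 500 uM ATP at 22 °C. Per cluster, the fluorescence ratio is summed target-cycle over summed buffer-cycle Cy3 intensity, averaged per switch-domain sequence. Only clusters within 100-1000 RFU were kept.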
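Also: ATP exposure 15 min at 22 °C before imaging.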

| Sequence | switch fluorescence ratio |
| --- | --- |
| TTTCGGTTGG | 0.999 ± 0.032 |
| TTTCGGTTGT | 1 ± 0.022 |
| TTTCGTACGG | 1.03 ± 0.087 |
| TTTCGTATTG | 0.991 ± 0.02 |
| TTTCGTCAGG | 0.997 ± 0.038 |
| TTTCGTCATG | 1.03 ± 0.065 |
| TTTCGTGCTT | 1.02 ± 0.032 |
| TTTCGTGGCA | 1.02 ± 0.066 |
| TTTCGTGGTC | 1.02 ± 0.015 |
| TTTCGTGTAG | 1 ± 0.032 |
| TTTCGTTCGC | 1.302 ± 0.013 |
| TTTCGTTGTA | 0.973 ± 0.001 |
| TTTCTAACTC | 1 ± 0.053 |
| TTTCTACTCG | 0.995 ± 0.017 |
| TTTCTAGTGG | 0.999 ± 0.03 |
| TTTCTATACG | 1.02 ± 0.031 |
| TTTCTATATA | 1 ± 0.052 |
| TTTCTCGTAA | 1.58 ± 0.55 |
| TTTCTGATTT | 0.983 ± 0.022 |
| TTTCTGCAGC | 1.24 ± 0.14 |
| TTTCTGGCTT | 1.02 ± 0.051 |
| TTTCTGGTT | 1.01 ± 0.038 |
| TTTCTTAGTG | 0.9622 ± 0.0086 |
| TTTCTTGGGA | 1 ± 0.059 |
| TTTCTTTAGT | 1 ± 0.04 |
| TTTCTTTCAA | 1.01 ± 0.021 |

| Sequence | switch fluorescence ratio |
| --- | --- |
| TTTCTTTGAT | 0.998 ± 0.029 |
| TTTCTTTGCA | 1.058 ± 0.0081 |
| TTTCTTTTGG | 1.1 ± 0.09 |
| TTTGAA | 0.9556 ± 0.0024 |
| TTTGAAAAGG | 1.01 ± 0.039 |
| TTTGAACTGT | 1.18 ± 0.14 |
| TTTGAACTTG | 1.01 ± 0.024 |
| TTTGAAGGTA | 1.01 ± 0.025 |
| TTTGAATGGG | 0.985 ± 0.029 |
| TTTGACATGG | 0.955 ± 0.029 |
| TTTGACGCAT | 1.6 ± 0.67 |
| TTTGACGGGC | 1.05 ± 0.032 |
| TTTGACTTTC | 1.07 ± 0.025 |
| TTTGAGAATC | 0.977 ± 0.017 |
| TTTGAGAGCT | 0.977 ± 0.014 |
| TTTGAGAGTT | 1.03 ± 0.058 |
| TTTGAGCAGA | 0.97 ± 0.02 |
| TTTGAGCTGT | 1.02 ± 0.042 |
| TTTGAGGCCT | 0.99 ± 0.025 |
| TTTGAGGGTG | 1.07 ± 0.065 |
| TTTGAGGGTT | 0.983 ± 0.026 |
| TTTGAGGTCG | 1.06 ± 0.063 |
| TTTGAGGTCT | 1.05 ± 0.072 |
| TTTGAGTGGC | 0.969 ± 0.041 |
| TTTGAGTGGT | 0.993 ± 0.013 |
| TTTGAGTGTG | 0.997 ± 0.03 |

| Sequence | switch fluorescence ratio |
| --- | --- |
| TTTGAGTGTT | 0.985 ± 0.011 |
| TTTGAGTTTT | 0.989 ± 0.034 |
| TTTGATAAAA | 0.972 ± 0.039 |
| TTTGATATAA | 0.991 ± 0.031 |
| TTTGATCACG | 1.02 ± 0.031 |
| TTTGATCGGG | 0.978 ± 0.015 |
| TTTGATGGGT | 0.993 ± 0.048 |
| TTTGATGGTT | 1.01 ± 0.011 |
| TTTGATGTGC | 1.07 ± 0.064 |
| TTTGATGTTG | 0.976 ± 0.033 |
| TTTGATTTAG | 0.989 ± 0.026 |
| TTTGCAAATT | 1.03 ± 0.039 |
| TTTGCAAGTA | 1.2 ± 0.3 |
| TTTGCAATAA | 2.35 ± 1.7 |
| TTTGCACAGC | 0.997 ± 0.051 |
| TTTGCACTGT | 0.998 ± 0.055 |
| TTTGCATCTT | 0.9984 ± 0.0022 |
| TTTGCATGAT | 0.982 ± 0.017 |
| TTTGCATTTG | 1.03 ± 0.013 |
| TTTGCCGCGG | 0.995 ± 0.023 |
| TTTGCCGGCG | 0.97337 ± 0.00069 |
| TTTGCCGGTA | 1.01 ± 0.014 |
| TTTGCCTGTA | 0.992 ± 0.032 |
| TTTGCCTT | 1.06 ± 0.051 |
| TTTGCGAACA | 1.06 ± 0.079 |
